IntAct's records for PubMed 35512704

B1: Speckle-type POZ protein (Homo sapiens), O43791 (parent)
chain: MSRVPSPPPPAEMSSGPVAESWCYTQIKVVKFSYMWTINNFSFCREEMGEVIKSSTFSSGANDKLKWCLRVNPKGLDEESKDYLSLYLLLVSCPKSEVRAKFKFSILNAKGEETKAMESQRAYRFVQGKDWGFKKFIRRDFLLDEANGLLPDDKLTLFCEVSVVQDSVNISGQNTMNMVKVPECRLADELGGLWENSRFTDCCLCVAGQEFQAHKAILAARSPVFSAMFEHEMEESKKNRVEINDVEPEVFKEMMCFIYTGKAPNLDKMADDLLAAADKYALERLKVMCEDALCSNLSVENAAEILILADLHSADQLKTQAVDFINYHASDVLETSGWKSMVVSHPHLVAEAYRSLASAQCPFLGPPRKRLKQS
partner: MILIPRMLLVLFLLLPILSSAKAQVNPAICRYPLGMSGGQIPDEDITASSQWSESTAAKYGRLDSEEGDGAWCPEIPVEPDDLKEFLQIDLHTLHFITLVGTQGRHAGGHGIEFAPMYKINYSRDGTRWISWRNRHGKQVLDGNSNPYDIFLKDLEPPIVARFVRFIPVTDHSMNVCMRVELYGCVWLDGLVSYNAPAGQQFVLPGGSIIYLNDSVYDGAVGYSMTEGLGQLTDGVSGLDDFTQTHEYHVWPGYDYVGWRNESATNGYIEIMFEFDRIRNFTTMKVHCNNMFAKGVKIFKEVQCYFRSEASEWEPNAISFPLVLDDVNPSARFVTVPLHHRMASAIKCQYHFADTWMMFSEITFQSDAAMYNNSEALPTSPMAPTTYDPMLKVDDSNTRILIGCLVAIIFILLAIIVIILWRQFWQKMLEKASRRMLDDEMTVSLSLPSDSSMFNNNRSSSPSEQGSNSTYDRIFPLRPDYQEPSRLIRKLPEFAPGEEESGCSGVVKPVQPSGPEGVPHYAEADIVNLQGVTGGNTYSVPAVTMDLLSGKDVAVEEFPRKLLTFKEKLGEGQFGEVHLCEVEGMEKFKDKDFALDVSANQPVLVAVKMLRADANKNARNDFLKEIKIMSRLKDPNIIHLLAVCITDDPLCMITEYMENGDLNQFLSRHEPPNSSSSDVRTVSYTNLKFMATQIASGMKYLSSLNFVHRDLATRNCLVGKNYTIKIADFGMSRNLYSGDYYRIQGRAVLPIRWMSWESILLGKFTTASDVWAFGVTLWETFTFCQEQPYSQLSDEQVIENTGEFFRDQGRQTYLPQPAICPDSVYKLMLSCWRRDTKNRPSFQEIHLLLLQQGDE
B2: Speckle-type POZ protein (Homo sapiens), O43791 (parent)
chain: B1 chain
partner: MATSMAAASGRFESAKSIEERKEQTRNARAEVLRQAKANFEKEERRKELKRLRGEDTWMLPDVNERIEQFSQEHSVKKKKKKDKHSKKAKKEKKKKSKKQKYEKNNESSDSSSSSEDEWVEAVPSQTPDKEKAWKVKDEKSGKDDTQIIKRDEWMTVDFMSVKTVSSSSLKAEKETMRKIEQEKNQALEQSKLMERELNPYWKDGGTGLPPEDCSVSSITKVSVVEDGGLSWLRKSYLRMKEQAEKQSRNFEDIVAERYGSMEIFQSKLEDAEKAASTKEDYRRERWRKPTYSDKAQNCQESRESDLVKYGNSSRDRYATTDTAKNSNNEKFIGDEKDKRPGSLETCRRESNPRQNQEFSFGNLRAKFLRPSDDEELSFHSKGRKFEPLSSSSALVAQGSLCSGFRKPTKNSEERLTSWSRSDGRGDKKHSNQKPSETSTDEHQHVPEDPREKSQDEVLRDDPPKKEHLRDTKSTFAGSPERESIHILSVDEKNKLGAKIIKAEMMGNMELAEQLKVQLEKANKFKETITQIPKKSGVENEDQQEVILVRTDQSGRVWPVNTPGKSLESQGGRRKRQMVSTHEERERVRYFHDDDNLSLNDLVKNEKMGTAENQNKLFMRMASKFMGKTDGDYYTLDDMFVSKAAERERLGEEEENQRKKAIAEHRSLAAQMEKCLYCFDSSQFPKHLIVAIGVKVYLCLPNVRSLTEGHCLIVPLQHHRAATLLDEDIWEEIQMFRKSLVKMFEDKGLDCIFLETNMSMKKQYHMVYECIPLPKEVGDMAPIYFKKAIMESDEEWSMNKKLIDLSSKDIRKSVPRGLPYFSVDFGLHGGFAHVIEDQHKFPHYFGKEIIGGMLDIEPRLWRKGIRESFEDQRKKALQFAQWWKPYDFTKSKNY
B3: Speckle-type POZ protein (Homo sapiens), O43791 (parent)
chain: B1 chain
partner: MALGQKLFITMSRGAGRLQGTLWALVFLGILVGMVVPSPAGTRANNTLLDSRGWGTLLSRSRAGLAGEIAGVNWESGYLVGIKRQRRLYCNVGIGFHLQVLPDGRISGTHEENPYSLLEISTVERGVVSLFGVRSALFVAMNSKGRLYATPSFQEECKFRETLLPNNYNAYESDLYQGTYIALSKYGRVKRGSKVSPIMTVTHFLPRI
B4: Speckle-type POZ protein (Homo sapiens), O43791 (parent)
chain: B1 chain
partner: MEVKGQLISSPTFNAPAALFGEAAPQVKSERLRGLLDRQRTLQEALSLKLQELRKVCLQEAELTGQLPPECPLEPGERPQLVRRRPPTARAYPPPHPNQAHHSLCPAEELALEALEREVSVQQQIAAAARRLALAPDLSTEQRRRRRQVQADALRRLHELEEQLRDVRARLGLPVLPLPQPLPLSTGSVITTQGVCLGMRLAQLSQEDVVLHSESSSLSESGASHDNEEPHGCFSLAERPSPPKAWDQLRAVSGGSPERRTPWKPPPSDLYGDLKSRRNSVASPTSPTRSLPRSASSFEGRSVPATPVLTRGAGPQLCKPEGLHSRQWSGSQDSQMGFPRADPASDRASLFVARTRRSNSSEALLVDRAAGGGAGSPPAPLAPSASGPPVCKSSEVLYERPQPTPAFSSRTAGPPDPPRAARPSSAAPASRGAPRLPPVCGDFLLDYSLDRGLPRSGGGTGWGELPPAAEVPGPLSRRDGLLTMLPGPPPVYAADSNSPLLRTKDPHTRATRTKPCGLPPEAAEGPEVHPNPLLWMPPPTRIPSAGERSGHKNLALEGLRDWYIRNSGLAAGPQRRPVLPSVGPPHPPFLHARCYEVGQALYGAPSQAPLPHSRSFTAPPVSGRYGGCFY
B5: Speckle-type POZ protein (Homo sapiens), O43791 (parent)
chain: B1 chain
partner: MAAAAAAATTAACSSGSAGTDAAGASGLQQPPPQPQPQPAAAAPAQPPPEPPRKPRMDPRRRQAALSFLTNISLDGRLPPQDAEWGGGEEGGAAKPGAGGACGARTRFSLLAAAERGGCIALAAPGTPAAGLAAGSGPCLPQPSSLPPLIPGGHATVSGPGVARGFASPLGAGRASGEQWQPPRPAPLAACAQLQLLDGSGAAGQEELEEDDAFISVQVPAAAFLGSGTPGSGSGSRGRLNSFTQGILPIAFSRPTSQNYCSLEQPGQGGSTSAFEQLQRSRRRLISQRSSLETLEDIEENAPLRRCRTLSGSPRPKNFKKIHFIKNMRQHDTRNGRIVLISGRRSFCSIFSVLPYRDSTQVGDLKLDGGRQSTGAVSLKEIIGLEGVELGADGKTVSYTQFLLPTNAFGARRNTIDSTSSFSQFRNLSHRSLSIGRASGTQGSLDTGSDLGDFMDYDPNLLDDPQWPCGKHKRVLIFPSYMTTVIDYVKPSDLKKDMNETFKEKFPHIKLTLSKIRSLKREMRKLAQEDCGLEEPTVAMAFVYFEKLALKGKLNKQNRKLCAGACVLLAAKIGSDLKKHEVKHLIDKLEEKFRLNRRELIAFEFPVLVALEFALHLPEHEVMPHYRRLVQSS

Variants of: B1
Details: with ddr2_human DDR2, Q16832

Variant | effect of a mutation on the interaction
Y87C | with no effect

Variants of: B2
Details: with CWF19L2, Q2TBE0

Variant | effect of a mutation on the interaction
F133V | with no effect

Variants of: B2
Details: with CWF19L2, Q2TBE0
Remark: another data set of the same source

Variant | effect of a mutation on the interaction
F133L | with no effect

Variants of: B2
Details: with CWF19L2, Q2TBE0
Remark: another data set of the same source

Variant | effect of a mutation on the interaction
F102C | with no effect

Variants of: B2
Details: with CWF19L2, Q2TBE0
Remark: another data set of the same source

Variant | effect of a mutation on the interaction
Y87C | with no effect

Variants of: B3
Details: with fgf6_human FGF6, P10767

Variant | effect of a mutation on the interaction
F102C | with no effect

Variants of: B4
Details: with cc120_human CCDC120, Q96HB5

Variant | effect of a mutation on the interaction
F102C | with no effect

Variants of: B4
Details: with cc120_human CCDC120, Q96HB5
Remark: another data set of the same source

Variant | effect of a mutation on the interaction
F133L | with no effect

Variants of: B4
Details: with cc120_human CCDC120, Q96HB5
Remark: another data set of the same source

Variant | effect of a mutation on the interaction
F133V | with no effect

Variants of: B4
Details: with cc120_human CCDC120, Q96HB5
Remark: another data set of the same source

Variant | effect of a mutation on the interaction
Y87C | with no effect

Variants of: B5
Details: with cabl1_human CABLES1, Q8TDN4

Variant | effect of a mutation on the interaction
Y87C | with no effect

Variants of: B5
Details: with cabl1_human CABLES1, Q8TDN4
Remark: another data set of the same source

Variant | effect of a mutation on the interaction
F102C | with no effect
